Columns and labels:
[1] = biological target: T1, Fas on the cell surface of human cell lines (MOLT-4, CESS, T47D) (human, UniProt P25445); test: cell-based or functional assay
[2] = biological target: T1, Fas on the cell surface of human cell …; test: flow cytometry on MOLT-4 cells (express Fas but not the antigen for HuABL364), anti-human IgG FITC
Procedure: MOLT-4, a human T lymphocyte line that expresses Fas on the cell surface (B. Trauth et al., *Science*, 245:301, 1989, incorporated herein by reference) but not the antigen for HuABL364, was stained by incubation with protein G-purified HuABL364 lg-FasL followed by incubation with an anti-human IgG FITC reagent (Jackson Immunoresearch, #715-096-151). Positive staining by HuABL364 Ig-FasL was detected by flow cytometry, compared to negative staining with the HuABL364 antibody.

% apoptotic cells, CESS [1] [% apoptotic cells]	% apoptotic cells, T47D [1] [% apoptotic cells]	binding result [2]	Binder
24	16	–	HuABL364 Ig-FasL5 Y244A (other) heavy (part 1 of 2): EVQLLESGGGLVQPGGSLRLSCAASGFTFSDYYMYWVRQAPEKRLEWVAYISNGGGSSHYVDSVKGRFTISRDNAKNTLYLQMNSLRAEDTALYHCARGMDYGAWFAYWGQGTLVTVSS heavy (part 2 of 2): GTGHPSPPPEKKELRKVAHLTGKSNSRSMPLEWEDTYGIVLLSGVKYKKGGLVINETGLYFVYSKVYFRGQSCNNLPLSHKVYMRNSKYPQDLVMMEGKMMSYCTTGQMWARSSALGAVFNLTSADHLYVNVSELSLVNFEESQTFFGLYKL light: DIVMTQSPLSLPVTPGEPASISCRSSQSIVHSNGNTYLEWYLQKPGQSPQLLISKVSNRFSGVPDRFSGSGSGTDFTLKISRVEAEDVGVYYCFQGSHVPFTFGQGTKLEIK
87	95	–	HuABL364 Ig-FasL5 V248A (other) heavy (part 1 of 2): EVQLLESGGGLVQPGGSLRLSCAASGFTFSDYYMYWVRQAPEKRLEWVAYISNGGGSSHYVDSVKGRFTISRDNAKNTLYLQMNSLRAEDTALYHCARGMDYGAWFAYWGQGTLVTVSS heavy (part 2 of 2): GTGHPSPPPEKKELRKVAHLTGKSNSRSMPLEWEDTYGIVLLSGVKYKKGGLVINETGLYFVYSKVYFRGQSCNNLPLSHKVYMRNSKYPQDLVMMEGKMMSYCTTGQMWARSSYLGAAFNLTSADHLYVNVSELSLVNFEESQTFFGLYKL light: DIVMTQSPLSLPVTPGEPASISCRSSQSIVHSNGNTYLEWYLQKPGQSPQLLISKVSNRFSGVPDRFSGSGSGTDFTLKISRVEAEDVGVYYCFQGSHVPFTFGQGTKLEIK
24	11	–	HuABL364 Ig-FasL5 Y189A (other) heavy (part 1 of 2): EVQLLESGGGLVQPGGSLRLSCAASGFTFSDYYMYWVRQAPEKRLEWVAYISNGGGSSHYVDSVKGRFTISRDNAKNTLYLQMNSLRAEDTALYHCARGMDYGAWFAYWGQGTLVTVSS heavy (part 2 of 2): GTGHPSPPPEKKELRKVAHLTGKSNSRSMPLEWEDTYGIVLLSGVKYKKGGLVINETGLAFVYSKVYFRGQSCNNLPLSHKVYMRNSKYPQDLVMMEGKMMSYCTTGQMWARSSYLGAVFNLTSADHLYVNVSELSLVNFEESQTFFGLYKL light: DIVMTQSPLSLPVTPGEPASISCRSSQSIVHSNGNTYLEWYLQKPGQSPQLLISKVSNRFSGVPDRFSGSGSGTDFTLKISRVEAEDVGVYYCFQGSHVPFTFGQGTKLEIK
32	88	–	HuABL364 Ig-FasL5 Y232A (other) heavy (part 1 of 2): EVQLLESGGGLVQPGGSLRLSCAASGFTFSDYYMYWVRQAPEKRLEWVAYISNGGGSSHYVDSVKGRFTISRDNAKNTLYLQMNSLRAEDTALYHCARGMDYGAWFAYWGQGTLVTVSS heavy (part 2 of 2): GTGHPSPPPEKKELRKVAHLTGKSNSRSMPLEWEDTYGIVLLSGVKYKKGGLVINETGLYFVYSKVYFRGQSCNNLPLSHKVYMRNSKYPQDLVMMEGKMMSACTTGQMWARSSYLGAVFNLTSADHLYVNVSELSLVNFEESQTFFGLYKL light: DIVMTQSPLSLPVTPGEPASISCRSSQSIVHSNGNTYLEWYLQKPGQSPQLLISKVSNRFSGVPDRFSGSGSGTDFTLKISRVEAEDVGVYYCFQGSHVPFTFGQGTKLEIK
–	–	no binding	HuABL364 antibody (antibody, V domains shown) VH: EVQLLESGGGLVQPGGSLRLSCAASGFTFSDYYMYWVRQAPEKRLEWVAYISNGGGSSHYVDSVKGRFTISRDNAKNTLYLQMNSLRAEDTALYHCARGMDYGAWFAYWGQGTLVTVSS VL: DIVMTQSPLSLPVTPGEPASISCRSSQSIVHSNGNTYLEWYLQKPGQSPQLLISKVSNRFSGVPDRFSGSGSGTDFTLKISRVEAEDVGVYYCFQGSHVPFTFGQGTKLEIK
25	10	–	HuABL364 Ig-FasL5 Y192A (other) heavy (part 1 of 2): EVQLLESGGGLVQPGGSLRLSCAASGFTFSDYYMYWVRQAPEKRLEWVAYISNGGGSSHYVDSVKGRFTISRDNAKNTLYLQMNSLRAEDTALYHCARGMDYGAWFAYWGQGTLVTVSS heavy (part 2 of 2): GTGHPSPPPEKKELRKVAHLTGKSNSRSMPLEWEDTYGIVLLSGVKYKKGGLVINETGLYFVASKVYFRGQSCNNLPLSHKVYMRNSKYPQDLVMMEGKMMSYCTTGQMWARSSYLGAVFNLTSADHLYVNVSELSLVNFEESQTFFGLYKL light: DIVMTQSPLSLPVTPGEPASISCRSSQSIVHSNGNTYLEWYLQKPGQSPQLLISKVSNRFSGVPDRFSGSGSGTDFTLKISRVEAEDVGVYYCFQGSHVPFTFGQGTKLEIK

Continued, binder first:

Binder	% apoptotic cells, CESS [1] [% apoptotic cells]	% apoptotic cells, T47D [1] [% apoptotic cells]	binding result [2]
HuABL364 Ig-FasL5 (other) heavy (part 1 of 2): EVQLLESGGGLVQPGGSLRLSCAASGFTFSDYYMYWVRQAPEKRLEWVAYISNGGGSSHYVDSVKGRFTISRDNAKNTLYLQMNSLRAEDTALYHCARGMDYGAWFAYWGQGTLVTVSS heavy (part 2 of 2): GTGHPSPPPEKKELRKVAHLTGKSNSRSMPLEWEDTYGIVLLSGVKYKKGGLVINETGLYFVYSKVYFRGQSCNNLPLSHKVYMRNSKYPQDLVMMEGKMMSYCTTGQMWARSSYLGAVFNLTSADHLYVNVSELSLVNFEESQTFFGLYKL light: DIVMTQSPLSLPVTPGEPASISCRSSQSIVHSNGNTYLEWYLQKPGQSPQLLISKVSNRFSGVPDRFSGSGSGTDFTLKISRVEAEDVGVYYCFQGSHVPFTFGQGTKLEIK	88	91	–
HuABL364 Ig-FasL5 H148S (other) heavy (part 1 of 2): EVQLLESGGGLVQPGGSLRLSCAASGFTFSDYYMYWVRQAPEKRLEWVAYISNGGGSSHYVDSVKGRFTISRDNAKNTLYLQMNSLRAEDTALYHCARGMDYGAWFAYWGQGTLVTVSS heavy (part 2 of 2): GTGHPSPPPEKKELRKVASLTGKSNSRSMPLEWEDTYGIVLLSGVKYKKGGLVINETGLYFVYSKVYFRGQSCNNLPLSHKVYMRNSKYPQDLVMMEGKMMSYCTTGQMWARSSYLGAVFNLTSADHLYVNVSELSLVNFEESQTFFGLYKL light: DIVMTQSPLSLPVTPGEPASISCRSSQSIVHSNGNTYLEWYLQKPGQSPQLLISKVSNRFSGVPDRFSGSGSGTDFTLKISRVEAEDVGVYYCFQGSHVPFTFGQGTKLEIK	26	15	–
HuABL364 Ig-FasL5 I168A (other) heavy (part 1 of 2): EVQLLESGGGLVQPGGSLRLSCAASGFTFSDYYMYWVRQAPEKRLEWVAYISNGGGSSHYVDSVKGRFTISRDNAKNTLYLQMNSLRAEDTALYHCARGMDYGAWFAYWGQGTLVTVSS heavy (part 2 of 2): GTGHPSPPPEKKELRKVAHLTGKSNSRSMPLEWEDTYGAVLLSGVKYKKGGLVINETGLYFVYSKVYFRGQSCNNLPLSHKVYMRNSKYPQDLVMMEGKMMSYCTTGQMWARSSYLGAVFNLTSADHLYVNVSELSLVNFEESQTFFGLYKL light: DIVMTQSPLSLPVTPGEPASISCRSSQSIVHSNGNTYLEWYLQKPGQSPQLLISKVSNRFSGVPDRFSGSGSGTDFTLKISRVEAEDVGVYYCFQGSHVPFTFGQGTKLEIK	81	91	–
HuABL364 Ig-FasL5 M229A (other) heavy (part 1 of 2): EVQLLESGGGLVQPGGSLRLSCAASGFTFSDYYMYWVRQAPEKRLEWVAYISNGGGSSHYVDSVKGRFTISRDNAKNTLYLQMNSLRAEDTALYHCARGMDYGAWFAYWGQGTLVTVSS heavy (part 2 of 2): GTGHPSPPPEKKELRKVAHLTGKSNSRSMPLEWEDTYGIVLLSGVKYKKGGLVINETGLYFVYSKVYFRGQSCNNLPLSHKVYMRNSKYPQDLVMMEGKAMSYCTTGQMWARSSYLGAVFNLTSADHLYVNVSELSLVNFEESQTFFGLYKL light: DIVMTQSPLSLPVTPGEPASISCRSSQSIVHSNGNTYLEWYLQKPGQSPQLLISKVSNRFSGVPDRFSGSGSGTDFTLKISRVEAEDVGVYYCFQGSHVPFTFGQGTKLEIK	90	95	–
HuABL364 Ig-FasL5 L170A (other) heavy (part 1 of 2): EVQLLESGGGLVQPGGSLRLSCAASGFTFSDYYMYWVRQAPEKRLEWVAYISNGGGSSHYVDSVKGRFTISRDNAKNTLYLQMNSLRAEDTALYHCARGMDYGAWFAYWGQGTLVTVSS heavy (part 2 of 2): GTGHPSPPPEKKELRKVAHLTGKSNSRSMPLEWEDTYGIVALSGVKYKKGGLVINETGLYFVYSKVYFRGQSCNNLPLSHKVYMRNSKYPQDLVMMEGKMMSYCTTGQMWARSSYLGAVFNLTSADHLYVNVSELSLVNFEESQTFFGLYKL light: DIVMTQSPLSLPVTPGEPASISCRSSQSIVHSNGNTYLEWYLQKPGQSPQLLISKVSNRFSGVPDRFSGSGSGTDFTLKISRVEAEDVGVYYCFQGSHVPFTFGQGTKLEIK	87	98	–

From patent US6046310, “FAS ligand fusion proteins and their uses” (Protein Design Labs., Inc., dated 2000)
